Laboratory results reported in FireProtDB (doi:10.1016/j.jmb.2010.09.022).

B1: Profilin, Q58NA1 (parent)
chain: MSDWDPVVKEWLVDTGYCCAGGIANAEDGVVFAAAADDDDGWSKLYKDDHEEDTIGEDGNACGKVSINEASTIKAAVDDGSAPNGVWIGGQKYKVVRPEKGFEYNDCTFDITMCARSKGGAHLIKTPNGSIVIALYDEEKEQDKGNSRTSALAFAEYLHQSGY

Variants of: B1
Conditions: Toxoplasma gondii; pH 7.5; Thermal; CD; HEPES 10mM; KCl 100mM; reversible: yes; structure 3NEC; whole UniProt chain shown

Variant | Tm | change of melting temperature, mutant - wild type (higher = more stable)
MSDWDPVVKEWLVDTGYCCAGGIANAEDGVVFAAAADDDDGWSKLYKDDHEEDTIGEDGNACGKVSINEASTIKAAVDDGSAPNGVWIGGQKYQFVNIEKGFEYNDCTFDIATCARSKGGAHLIKTPNGSIVIALYDEEKEQDKGNSRTSALAFAEYLHQSGY [K94Q V95F R97N P98I T112A M113T] | 62.2 °C | 9.1 °C
MSDWDPVVKEWLVDTGYCCAGGIANAEDGVVFAAAADQGDGWSKLYKDDHEEDTIGEDGNACGKVSINEASTIKAAVDDGSAPNGVWIGGQKYKVVRPEKGFEYNDCTFDITMCARSKGGAHLIKTPNGSIVIALYDEEKEQDKGNSRTSALAFAEYLHQSGY [D38Q D39G] | 51.3 °C | -1.8 °C
